Assays:
[1] = target: Act88F^M305L Drosophila indirect flight muscle (IFM) actin, filamentous (F-Act88F^M305L) (Drosophila melanogaster)
[2] = target: Act88F^WT Drosophila indirect flight muscle (IFM) actin, filamentous (F-Act88F^WT) (Drosophila melanogaster) (UniProt P83967)

porcine cardiac tropomyosin (Tpm), sequence (P42639 whole entry): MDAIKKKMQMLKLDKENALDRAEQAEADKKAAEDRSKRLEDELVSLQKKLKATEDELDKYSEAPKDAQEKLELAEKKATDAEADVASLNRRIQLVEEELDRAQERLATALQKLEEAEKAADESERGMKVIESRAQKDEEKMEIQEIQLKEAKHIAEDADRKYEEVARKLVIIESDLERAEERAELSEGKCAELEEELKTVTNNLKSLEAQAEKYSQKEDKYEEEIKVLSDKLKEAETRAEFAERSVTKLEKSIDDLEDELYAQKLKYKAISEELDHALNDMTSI
rabbit psoas myosin, sequence (Q28641 whole entry, looked up): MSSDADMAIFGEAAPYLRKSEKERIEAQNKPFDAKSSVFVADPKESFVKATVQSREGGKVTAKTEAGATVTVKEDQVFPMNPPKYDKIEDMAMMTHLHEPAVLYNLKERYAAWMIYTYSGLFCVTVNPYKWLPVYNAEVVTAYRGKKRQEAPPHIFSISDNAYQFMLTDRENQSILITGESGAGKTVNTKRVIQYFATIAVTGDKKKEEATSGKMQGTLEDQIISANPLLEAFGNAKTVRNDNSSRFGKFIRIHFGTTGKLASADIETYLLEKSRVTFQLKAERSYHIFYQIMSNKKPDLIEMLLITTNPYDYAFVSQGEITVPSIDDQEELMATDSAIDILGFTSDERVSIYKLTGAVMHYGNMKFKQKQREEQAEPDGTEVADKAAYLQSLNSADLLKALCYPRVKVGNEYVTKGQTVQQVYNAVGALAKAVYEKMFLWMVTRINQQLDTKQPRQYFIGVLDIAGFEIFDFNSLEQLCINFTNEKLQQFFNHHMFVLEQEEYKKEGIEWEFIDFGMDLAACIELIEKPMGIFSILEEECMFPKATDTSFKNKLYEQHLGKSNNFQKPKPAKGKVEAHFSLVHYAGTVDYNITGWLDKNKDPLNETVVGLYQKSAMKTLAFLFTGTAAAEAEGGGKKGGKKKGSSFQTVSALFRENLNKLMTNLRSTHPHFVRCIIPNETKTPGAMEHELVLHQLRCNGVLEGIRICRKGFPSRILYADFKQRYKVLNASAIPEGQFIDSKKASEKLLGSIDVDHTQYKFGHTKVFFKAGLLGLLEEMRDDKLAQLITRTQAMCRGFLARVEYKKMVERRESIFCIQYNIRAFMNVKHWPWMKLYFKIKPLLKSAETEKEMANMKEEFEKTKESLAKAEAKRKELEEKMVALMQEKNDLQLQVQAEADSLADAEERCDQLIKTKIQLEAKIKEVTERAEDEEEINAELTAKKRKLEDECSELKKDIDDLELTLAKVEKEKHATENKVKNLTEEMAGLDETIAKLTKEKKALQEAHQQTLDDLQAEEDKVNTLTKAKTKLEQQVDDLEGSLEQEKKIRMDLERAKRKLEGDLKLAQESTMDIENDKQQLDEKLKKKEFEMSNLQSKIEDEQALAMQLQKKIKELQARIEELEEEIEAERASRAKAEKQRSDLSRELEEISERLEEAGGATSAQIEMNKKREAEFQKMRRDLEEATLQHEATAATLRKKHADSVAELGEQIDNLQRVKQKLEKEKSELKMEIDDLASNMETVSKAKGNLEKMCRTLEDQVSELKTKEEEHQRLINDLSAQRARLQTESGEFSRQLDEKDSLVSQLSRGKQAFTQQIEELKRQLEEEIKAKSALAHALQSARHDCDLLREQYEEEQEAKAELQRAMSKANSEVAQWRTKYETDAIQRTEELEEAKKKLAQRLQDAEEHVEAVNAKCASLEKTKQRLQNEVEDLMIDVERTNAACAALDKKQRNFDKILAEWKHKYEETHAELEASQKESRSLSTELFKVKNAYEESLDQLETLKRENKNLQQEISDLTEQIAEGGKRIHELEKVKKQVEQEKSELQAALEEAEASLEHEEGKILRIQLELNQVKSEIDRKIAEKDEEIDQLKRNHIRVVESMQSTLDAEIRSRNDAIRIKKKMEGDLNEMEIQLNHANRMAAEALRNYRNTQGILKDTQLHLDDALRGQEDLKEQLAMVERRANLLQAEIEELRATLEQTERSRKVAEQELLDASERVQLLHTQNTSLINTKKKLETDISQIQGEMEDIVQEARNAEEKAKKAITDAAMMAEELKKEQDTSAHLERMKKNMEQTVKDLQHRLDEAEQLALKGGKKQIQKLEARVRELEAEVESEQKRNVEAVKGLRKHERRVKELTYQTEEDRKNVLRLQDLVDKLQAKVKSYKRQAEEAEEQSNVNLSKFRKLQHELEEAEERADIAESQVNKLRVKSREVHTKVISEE

| Filaments moving (%) in in vitro motility at 30 °C with 300 nM Tpm, rabbit psoas myosin 12.5 to 100 µg ml^-1 (21.17 to 71.16 %) [1] [%] | Filaments moving (%) in in vitro motility at 30 °C with 300 nM Tpm, rabbit psoas myosin 12.5 to 100 µg ml^-1 (14.96 to 62.87 %) [2] [%] | Filaments moving (%) in in vitro motility at 30 °C without Tpm, rabbit psoas myosin 12.5 to 100 µg ml^-1 (32.57 to 68.00 %) [1] [%] | Filaments moving (%) in in vitro motility at 30 °C without Tpm, rabbit psoas myosin 12.5 to 100 µg ml^-1 (31.02 to 68.11 %) [2] [%] | Substance |
| --- | --- | --- | --- | --- |
| 71.2 | 62.9 |  |  | porcine cardiac tropomyosin (Tpm) (from UniProt P42639 1-284) (natural protein) |
|  |  | 68 | 68.1 | rabbit psoas myosin (from UniProt Q28641 1-1938) (complex) |

— PMC7229152
